{
  "source": "patent US20250270584A1",
  "about": "“Gene editing to provide insect resistance in crops” (The Regents of the University of California, priority 2022, published 2025)",
  "molecular_target": "6His-CaM7 (Arabidopsis thaliana), P59220",
  "assay": "ITC at 25 C, peptide titrated into 6His-CaM7, 1 mM Ca2+",
  "data": [
    {"binder": "DQQQNHDSSSMRSTRLQRFLSL (modifications not checked)", "note": "[CBD peptide]", "values": [
      {"measurement": "stoichiometry (peptide per CaM7)", "result": 1}
    ]}
  ]
}
